± gives the half width of the 95% confidence interval.
Tests used:
[1] = folding stability dG unfold from chymotrypsin proteolysis; higher = more stable
Summary of the method: (§1)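 Designed mini-proteins (under 80 residues, no cysteine) in a PA-tagged cDNA display construct were digested with trypsin and chymotrypsin. Each protease was used at 11 concentrations (threefold dilutions) plus a no-protease condition, followed by sequencing. K50 was inferred by Bayesian fitting of sequencing counts, and unfolding free energy was derived against a sequence-predicted unfolded-state K50 and a shared folded-state K50, per protease or combined. Only designs with AlphaFold2 dimer inter-PAE above 15 were kept.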

[2] = folding stability dG unfold (combined trypsin and chymotrypsin); higher = more stable
Summary of the method: as §1

[3] = folding stability dG unfold from trypsin proteolysis; higher = more stable
Summary of the method: as §1

Row | Sequence | folding stability dG unfold [1] [kcal/mol] | folding stability dG unfold [2] [kcal/mol] | folding stability dG unfold [3] [kcal/mol]
1 | SAGGDPNTARVVVLTGHPDVITPEQIRTLLENLGADEIKSVEVFTTPTSRVVRFVDSNGAPTVIFVPSAGGS [r8_86_TrMRF] | 1.99 ± 0.032 | 1.88 ± 0.072 | 1.8 ± 0.038
2 | SAGGDSISDIESVNIYSFNIPSNPYPYIIAELTIPDGRKIIAIYDPSTNTVTIIIEDDGKPRIITLPASAGG [r13_960_TrMRF] | 2.9 ± 0.12 | 2.7 ± 0.11 | 2.49 ± 0.1
3 | SAGGDSVYIPGSISEAIDALRENPNKTVHIMSPDGYYIKITVKWDGDGDYKIDIKWQPPPPPPDPEDKSAGG [r13_56_TrROS] | 2.3 ± 0.21 | 2.23 ± 0.39 | 2.23 ± 0.33
4 | SAGGDTVTTTETFPEKPILTVTTTSFSPSGTTTTTTTTYEVENGKIVSKLSTTTTTTAVAPAPPGTASAGGS [r16_682_JUSTAS] | 1.05 ± 0.024 | 0.941 ± 0.036 | 0.71 ± 0.034
5 | SAGGDWMLVIEIEIEGQPTPDGQIKVEISIEIELVRPPPPPITPWDRMAEEARDKNPNIPPDDPEAMTSAGG [r13_136_TrROS] | 1.7 ± 0.095 | 1.93 ± 0.2 | 2.12 ± 0.11
6 | SAGGDWVPIEFTIMVPAEELQEGKPPTAEDIVEELFPPNFNVDIDVQQFPGNGYVYATVKIWVPPGMPSAGG [r13_862_TrROS] | 2.46 ± 0.098 | 2.4 ± 0.21 | 2.36 ± 0.19
7 | SAGGDYVKIDFTVMIPTPEQAEEMAEEIKNFFRFMGIKEVKIKVQRNPNNGMYYVTVDIEIRMPPGAVSAGG [r19_92_TrROS] | 5.12 ± 0.1 | 4.82 ± 0.17 | 3.34 ± 0.2
8 | SAGGEEEILRQIREAAKKGEEVTIVFPKGMSIEELKKLIEEELGVEVEEIKVEKNENGELTVTIKVKSAGGS [r16_318_TrROS_Hall] | 2.99 ± 0.11 | 4.07 ± 0.26 | 4.33 ± 0.24
9 | SAGGEEELRKAAEIAAAPPLEIEPVLETFTVETEEGPRVVLVISPVVRFPGDGVLIPNPVLVIPAEELSAGG [r19_11_TrMRF] | 0.301 ± 0.11 | 0.699 ± 0.11 | 0.861 ± 0.052
10 | SAGGEEKVITKEETITVPPDAGTITISSNEVIKDPNSSYTYYVKESKTVSRDPNSNVYTITLKIKVEKSAGG [r13_574_JUSTAS] | 0.917 ± 0.43 | 0.647 ± 0.33 | -0.0992 ± 0.12
11 | SAGGEELIKELLDKLPPDVKEATIEIEVDGKKVTLTVNEDGEVTLEVIDPETKEKKTFKIKNGKIEPVSAGG [r13_803_TrROS_Hall] | 3.19 ± 0.079 | 2.97 ± 0.28 | 2.46 ± 0.28
12 | SAGGEETVTLELELEFEPGMTEEELEEKARELAEALAEELGLEVEVEVRVERDEDGRVRVTVEVRVKSAGGS [r16_279_TrROS_Hall] | 2.06 ± 0.051 | 2.56 ± 0.086 | 2.94 ± 0.076
13 | SAGGEGEPFRITPDEIQRIFNELAQDHGFNVSISEIQVPGDEVRITISIQHDGGTQSVRLPFRIEKDDSAGG [r13_652_TrROS] | 0.191 ± 0.21 | 0.37 ± 0.21 | 0.427 ± 0.2
14 | SAGGEIEIVVETPEDLEKAKELAEELAKALEEAGLEIEEVKVELVEETVVNEDGEEKKRYVLKITFPSAGGS [r16_591_TrROS_Hall] | 3.24 ± 0.086 | 2.97 ± 0.14 | 2.46 ± 0.1
15 | SAGGEIKPGQTVRIRITVYNLETGEEKTIEVEVPAGKTLEEVLAELFDNLSEEERKNLVVRIEIEPVSAGGS [r16_321_TrROS_Hall] | 5.02 ± 0.12 | 4.9 ± 0.26 | 4.38 ± 0.15
16 | SAGGEISPEDIKELEIYPIPPEDAQKNGYIMIEIKGPGGKPIAQIMIPVRVPKVKDKDGKPMDLEDMNSAGG [r13_864_TrROS] | 1.6 ± 0.07 | 1.32 ± 0.22 | 1.13 ± 0.044
17 | SAGGEKEYVEVTLEIEIEIELEPGESAEEIARKLAEELGAEITEVRVERLPDGTVKITVTVRVKLPPSAGGS [r8_292_TrROS_Hall] | 2.58 ± 0.2 | 2.98 ± 0.35 | 3.3 ± 0.29
18 | SAGGEKIEELLKELLEKLEIKPGEKVEIEIEFELEDGYRIKLKITVTYNEETGEVEIKVEIVEIEKVSAGGS [r16_634_TrROS_Hall] | 4.39 ± 0.17 | 4.22 ± 0.19 | 2.96 ± 0.12
19 | SAGGEKKPVKVKIEVESFKLPNVLVLKAKVYLPATGKWYEAIVIEGPTKTLVVIKFPDGSSLVLELNSAGGS [r16_657_TrMRF] | 4.12 ± 0.12 | 3.9 ± 0.31 | 2.97 ± 0.17
20 | SAGGEKPKEVEIEEVVVKNEETGEEVRFFRIRDKETDEWYVLAVVRNKDGEEKVVKMSAEEAKKLLESAGGS [r8_421_TrROS_Hall] | 3.7 ± 0.044 | 3.59 ± 0.14 | 3.13 ± 0.065
21 | SAGGEKVTVTVTTETKTVTVTVYKAPAPKFKVTEITLELDENGNLRLTIKLENGETLEFDSLEDLLAALSAG [r5_618_TrROS_Hall] | 3.17 ± 0.15 | 2.73 ± 0.3 | 2.77 ± 0.079

Row | Sequence | folding stability dG unfold [1] [kcal/mol] | folding stability dG unfold [2] [kcal/mol] | folding stability dG unfold [3] [kcal/mol]
22 | SAGGELKLLFNFPSKEEAEEFAEALKKAYPNFEVEVEYDPETGLFYLTLKPKEIPPLSPEELEKLLESAGGS [r16_674_TrMRF] | 4.87 ± 0.056 | 4.7 ± 0.071 | 2.96 ± 0.085
23 | SAGGELVLLIRVTPERIEIRLLPKEALEGLELEAPPGERLLLVELEPPPPEEEEREERRREEREELEESAGG [r13_74_TrROS_Hall] | 1.4 ± 0.23 | 1.32 ± 0.41 | 1.34 ± 0.13
24 | SAGGEMVTIRVRAPDPEKLIEALREEFPEGLTIRPFPRPTPDGYEVLIVVPAERPEELLEAVERAIGSAGGS [r16_43_TrMRF] | 2.17 ± 0.022 | 2.13 ± 0.068 | 2.01 ± 0.075
25 | SAGGEPMKIRIEIYRMKRKKDPKDGKEKWDMRPVPEYEIPFPPGETLLDILDKLPLPPGYMIKRISIESAGG [r13_716_TrROS] | 2.07 ± 0.12 | 2.13 ± 0.32 | 2.28 ± 0.097
26 | SAGGEPPPVRVSFSVEEVTVGAGPVFVRRVVTYDPAEGRVSEFVEVFERGRGGLLGRSSRTVPAEELASAGG [r13_772_TrMRF] | 4.7 ± 0.13 | 4.44 ± 0.16 | 4.08 ± 0.15
27 | SAGGEPVKFIPPGWKITLTTPDGRPLTFTLPANATPEDFKSLELPGDHELEFVEFLPDGTILVRSPKSAGGS [r16_103_TrMRF] | 1.2 ± 0.18 | 1.12 ± 0.11 | 0.948 ± 0.088
28 | SAGGERLTLEELEELLKNLPPGVEEVTITLKLEVEVRTEVRLNEDGSLETRTETRVTTELTLTLPKESAGGS [r16_708_TrROS_Hall] | 4.01 ± 0.4 | 3.46 ± 0.25 | 2.5 ± 0.34
29 | SAGGETKTLTIKFYDPKTGKLVAEVTITYTPEKVTVTIRFADGTTETVEMTAEELLAKLPPGAVIVPSAGGS [r16_543_TrROS_Hall] | 4.46 ± 0.22 | 4.31 ± 0.16 | 3.79 ± 0.11
30 | SAGGETLTVTVLIKNKDEKNKYYKVEVKVTVEKNENGEKTLTIEMKITDKNGNKKTIKVNLKDIKIIDSAGG [r13_787_TrROS_Hall] | 4.33 ± 0.24 | 3.69 ± 0.32 | 2.52 ± 0.26
31 | SAGGETRTFMFPFKPGMPLEEIIEELIDVLQKKGKDYPIEFKPIEPDPNGYMLFMATVTNNKITIFWSAGGS [r8_7_TrROS] | 3.03 ± 0.083 | 2.83 ± 0.17 | 2.22 ± 0.05
32 | SAGGETVTLTLKVETLEELEALAKKLAEETGEEVTIEVIGPDGKKYTFKTPEELKNIPGATVKITIKKSAGG [r13_620_TrROS_Hall] | 2.96 ± 0.041 | 2.87 ± 0.15 | 2.19 ± 0.13
33 | SAGGEVELKIKIEIRVELNEDGELKVEIKIEIELRPKPEPELTEEERLAEELRKKYPGLSKEELEALLSAGG [r13_136_TrROS_Hall] | 1.63 ± 0.13 | 2.32 ± 0.27 | 2.87 ± 0.32
34 | SAGGEVKPGDKVKVRLRLRVRLEDGEEVEVELEFVEVEVVPLSEEEKEKLEELKKKKPEVDPKNKELLSAGG [r13_330_TrROS_Hall] | 2.24 ± 0.11 | 1.81 ± 0.3 | 1.61 ± 0.13
35 | SAGGEVKVVKAEVTTLPDGRKLVRLLLEVGGKFYPVLIDVHPDGVRITFPDGKTATIKLEDLKNLTWSAGGS [r16_593_TrMRF] | 1.73 ± 0.14 | 2.15 ± 0.12 | 2.64 ± 0.094
36 | SAGGEVLIDTGPSPEEALYRAYEKGGEVPVIVLEPGSRVLHIFNVRFNPIPKKVEILDEYEIPILPELSAGG [r13_309_TrMRF] | 1.46 ± 0.087 | 1.38 ± 0.11 | 1.18 ± 0.025
37 | SAGGFEFEFTNPDGKKIKVEIERHPEEGYIMLKIQYGGKPVETFPPGDEFEIPPDGIDAVIMFRLPPESAGG [r13_958_TrROS] | 3.22 ± 0.12 | 2.91 ± 0.22 | 2.88 ± 0.15
38 | SAGGFKEIKKKLGVKKEDKVILDLEVNFGKKPKFFKVEFEVDKLEEIVKELGIPKENLKIVKAVVIKESAGG [r13_681_TrMRF] | 1.16 ± 0.082 | 0.706 ± 0.13 | -0.523 ± 0.31
39 | SAGGFLEAIKNGKPVIFHVLVKHPGSGEVEEYPILVHPDKPIDLEKLIKELFPEDFEAEIFVSDFGFSAGGS [r8_127_TrMRF] | 2.11 ± 0.058 | 1.89 ± 0.089 | 1.3 ± 0.13
40 | SAGGFLENLPDEVVEAALAAVLPDGSRVFVALRKGPDRPRVLIITFDANGVPRDIRELDPEEALKALEASAG [r5_73_TrMRF] | 2.75 ± 0.028 | 2.68 ± 0.034 | 2.48 ± 0.042
41 | SAGGFRIERDGDYLRIEIRVNDPPGQPVEEAKNIMKQLFGFKDIKVDEIEPNPNGQAEIEIEIPFPKSAGGS [r16_234_TrROS] | -0.3 ± 0.29 | 0.393 ± 0.12 | 0.658 ± 0.13

From the supplement of paper PMC12764529
